Experimental data from patent publication US20180243365A1.

Target: TcdB2 toxin (recombinant, full length) (Clostridium difficile)
Assay: SPR, TcdB2 immobilized, PepB2 injected; multivalent interaction, no affinity or rate constant determined

Substance: PepB2 (Peptide 5; amino acids 1769-1787 of TcdB2)
- molecules of PepB2 calculated to bind a single molecule of TcdB (molecules of PepB2 per molecule of TcdB): 250
